Data reported in article PMC10873595, “Filament structure and subcellular organization of the bacterial intermediate filament–like protein crescentin” (Proceedings of the National Academy of Sciences of the …, 2024).
Where two headings read alike, the source gives them in different places.

T1: CreS-His (full-length CreS followed by GSHHHHHH) (Caulobacter crescentus (vibrioides) …)
T1 chain: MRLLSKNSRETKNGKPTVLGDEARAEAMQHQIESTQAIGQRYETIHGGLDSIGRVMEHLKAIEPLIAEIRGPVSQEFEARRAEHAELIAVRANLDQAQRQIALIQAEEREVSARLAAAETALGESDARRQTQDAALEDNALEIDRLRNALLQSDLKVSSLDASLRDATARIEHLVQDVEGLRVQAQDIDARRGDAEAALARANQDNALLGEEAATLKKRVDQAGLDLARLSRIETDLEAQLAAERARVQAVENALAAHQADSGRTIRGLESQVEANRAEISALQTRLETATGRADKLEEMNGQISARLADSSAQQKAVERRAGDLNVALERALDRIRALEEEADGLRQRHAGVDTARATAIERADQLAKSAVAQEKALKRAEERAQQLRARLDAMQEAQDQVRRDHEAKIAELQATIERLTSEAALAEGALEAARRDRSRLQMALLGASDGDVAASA

B1: Megabody MB13 (NB13, YgjK) (VHH)
VHH: AHNTESGEMLFTVKKDSLRLSCASSRSIDGINIMRWYRQAPGKQRGMVAVVTGWGSTNYVDSVKGRFIISRDSAKDTVYLQMNNLKPEDTAVYSCNAIYRGSEYWGQGTQVTVSS
B2: nanobody 13 (NB13) (VHH)
VHH: QVQLQESGGGLVQTGGSLRLSCASSRSIDGINIMRWYRQAPGKQRGMVAVVTGWGSTNYVDSVKGRFIISRDSAKDTVYLQMNNLKPEDTAVYSCNAIYRGSEYWGQGTQVTVSS
notes: camelid nanobody raised against purified CreSwt; also called CreS-specific nanobody; clone No. 13; source: E. coli WK6, periplasmic extract, purified (HisTrap); not shown: HA, C-terminal, kept

Assays:
[1] = molecular target: T1, CreS-His (full-length CreS followed by …)
[2] = molecular target: T1, CreS-His (full-length CreS followed by …); assay: far-Western, overlay or dot blot; cleared lysates of E. coli C41 (DE3) expressing CreS-His variants resolved by SDS-PAGE, blotted, probed with NB13 (7 µg/mL) then α-HA-peroxidase; conditions: one partner purified

binding result [1] | binding result [2] | Binder
binds |  | B1
 | binds | B2
